{"source": "paper PMC7984725", "about": "(Biochemistry, 2018)", "binders": {"B1": {"name": "prothymosin-α (ProTα) (natural protein, UniProt P06454 1-111, looked up)", "chain": "MSDAAVDTSSEITTKDLKEKKEVVEEAENGRDAPANGNAENEENGEQEADNEVDEEEEEGGEEEEEEEEGDGEEEDGDEDEEAESATGKRAAEDDEDDDVDTKKQKTDEDD"}}, "molecular_target": "human linker histone H1.0 (human, UniProt P07305 1-194)", "sequence (P07305 whole entry)": "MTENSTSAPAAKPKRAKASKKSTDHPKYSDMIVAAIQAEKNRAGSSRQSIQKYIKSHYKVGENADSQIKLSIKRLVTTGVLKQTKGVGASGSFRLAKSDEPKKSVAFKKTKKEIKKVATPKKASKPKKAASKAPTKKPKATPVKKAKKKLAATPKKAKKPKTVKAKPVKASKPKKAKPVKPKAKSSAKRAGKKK", "test": "ITC"}
{"binder": "B1", "values": [{"measurement": "Kd", "value": 460, "unit": "nM"}, {"measurement": "stoichiometry N", "value": 1}]}
